Experimental data reported in article PMC4139611, “Differential expression of Homeobox C11 protein in water buffalo Bubalus bubalis and its putative 3D structure”.

Biological target: HOXC11 (His-HOXC11) (Bubalus bubalis (water buffalo), UniProt W5XU26 1-304)
Assay: EMSA; supershift with anti-HOXC11 antibody; 10 mM Tris pH 7.9, 1 mM DTT, 0.1 mM EDTA, 50 mM KCl, 5% glycerol, 30 min at 4 °C; 5% native PAGE in 1x TBE at room temperature
Conditions: protein: recombinant; tags: N-terminal His6 with thrombin site; label: 32P (alpha-32P-dCTP); 5' overhang 4 nt (GATC) at both ends

Chain of HOXC11 (His-HOXC11) (W5XU26 entry or part of it): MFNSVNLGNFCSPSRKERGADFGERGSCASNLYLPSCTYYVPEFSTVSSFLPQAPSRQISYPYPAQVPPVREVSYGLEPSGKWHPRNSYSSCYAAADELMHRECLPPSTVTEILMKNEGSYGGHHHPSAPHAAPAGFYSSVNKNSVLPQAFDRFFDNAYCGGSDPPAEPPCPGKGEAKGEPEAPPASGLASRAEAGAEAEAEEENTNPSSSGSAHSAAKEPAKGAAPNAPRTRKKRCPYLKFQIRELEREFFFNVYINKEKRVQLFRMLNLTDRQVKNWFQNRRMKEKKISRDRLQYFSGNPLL

B1: CE-LPH1 probe (LPH promoter) (dsDNA)
DNA 1: GATCTTTTACAACCTCAGTTG
DNA 2: GATCCAACTGAGGTTGTAAAA
B1: binds.
